In paper PMC11996885 (2025):

Target: FGFR2 on SNU16 cells (FGFR2 amplification) (human (endogenous in SNU16), UniProt P21802 22-821)
Experiment: FACS; apparent Kd, SNU16 cells

Chain of FGFR2 on SNU16 cells (FGFR2 amplification) (P21802 22-821): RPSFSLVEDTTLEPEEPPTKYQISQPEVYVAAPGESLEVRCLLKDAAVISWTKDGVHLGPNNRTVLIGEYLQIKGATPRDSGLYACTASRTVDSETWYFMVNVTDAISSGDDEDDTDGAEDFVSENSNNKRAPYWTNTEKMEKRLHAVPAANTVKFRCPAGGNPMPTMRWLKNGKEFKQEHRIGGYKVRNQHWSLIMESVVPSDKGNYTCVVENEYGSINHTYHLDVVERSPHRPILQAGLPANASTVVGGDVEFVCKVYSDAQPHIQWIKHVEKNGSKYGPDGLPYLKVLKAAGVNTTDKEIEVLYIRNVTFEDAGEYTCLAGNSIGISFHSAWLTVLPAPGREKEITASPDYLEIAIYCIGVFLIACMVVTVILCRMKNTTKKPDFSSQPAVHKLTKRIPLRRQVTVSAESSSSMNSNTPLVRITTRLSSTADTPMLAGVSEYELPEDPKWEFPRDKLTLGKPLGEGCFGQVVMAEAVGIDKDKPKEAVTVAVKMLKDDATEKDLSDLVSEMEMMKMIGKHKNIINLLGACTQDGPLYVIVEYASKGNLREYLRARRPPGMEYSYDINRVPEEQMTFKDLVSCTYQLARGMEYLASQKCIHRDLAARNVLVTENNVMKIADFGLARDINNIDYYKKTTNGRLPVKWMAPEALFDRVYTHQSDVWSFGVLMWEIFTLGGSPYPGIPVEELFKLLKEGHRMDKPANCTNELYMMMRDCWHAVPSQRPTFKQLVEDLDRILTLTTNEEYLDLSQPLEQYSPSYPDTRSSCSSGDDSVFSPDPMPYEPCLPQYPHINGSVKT

Binder | Kd
FGFR2 parental antibody C (antibody, V domains shown) VH: QVQLVESGGGLVKPGGSLRLSCAASGFTFSSYALSWVRQAPGKGLEWVGRIRSKIDGGTTDYAAPVKGRFTISRDDSKNTLYLQMNSLKTEDTAVYYCARDRSPSDSSAFAIWGQGTLVTVSS VL: DIELTQPPSVSVSPGQTASITCSGDNLGSQYVDWYQQKPGQAPVLVIYDDNDRPSGIPERFSGSNSGNTATLTISGTQAEDEADYYCQSWDSLSVVFGGGTKLTVL | 0.15 nM
FGFR2 parental antibody E (antibody, V domains shown) VH: QVQLVQSGAEVKKPGSSVKVSCKASGYIFTTYNVHWVRQAPGQGLEWIGSIYPDNGDTSYNQNFKGRATITADKSTSTAYMELSSLRSEDTAVYYCARGDFAYWGQGTLVTVSS VL: DIQMTQSPSSLSASVGDRVTITCKASQGVSNDYAWYQQKPGKAPKLLIYSASYRYTGVPSRFSGSGSGTDFTFTISSLQPEDIATYYCQQHSTTPYTFGQGTKLEIK | 1.77 nM
FGFR2 parental antibody B (antibody, V domains shown) VH: QIQLVQSGPELKKPGETVKISCKASGYTFTDFGMNWMKQAPGKGFKWMGWINTSTGESTYADDFKGRFAFSLETSASTAYLQINNLKNEDMATYFCARNSYYGGSYGYWGQGTTLTVSS VL: not shown | 32.8 nM
FGFR2 parental antibody D (antibody, V domains shown) VH: EVQLVESGGGLVQPGGSLRLSCAASGFPFTSTGISWVRQAPGKGLEWVGRTHLGDGSTNYADSVKGRFTISADTSKNTAYLQMNSLRAEDTAVYYCARTYGIYDTYDMYTEYVMDYWGQGTLVTVSS VL: DIQMTQSPSSLSASVGDRVTITCRASQDVDTSLAWYKQKPGKAPKLLIYSASFLYSGVPSRFSGSGSGTDFTLTISSLQPEDFATYYCQQSTGHPQTFGQGTKVEIK | 1.99 nM
FGFR2 parental antibody F (antibody, V domains shown) VH: QVQLVQSGAEVKKPGESLKISCKGSGYSFTNYYIHWVRQMPGKGLEWMGAIYPDNSDTTYSPSFQGQVTISADKSISTAYLQWSSLKASDTAMYYCARGADIWGQGTLVTVSS VL: DIQMTQSPSSLSASVGDRVTITCRASQDIDPYLSNWYQQKPGKAPKLLIYDASNLQSGVPSRFSGSGSGTDFTLTISSLQPEDFATYYCQQTTSHPYTFGQGTKVEIK | 9.4 nM
FGFR2 parental antibody A (antibody, V domains shown) VH: EVQLLESGGGLVQPGGSLRLSCAASGFTFSSYAMSWVRQAPGKGLEWVSAISGSGTSTYYADSVKGRFTISRDNSKNTLYLQMNSLRAEDTAVYYCARVRYNWNHGDWFDPWGQGTLVTVSS VL: QSVLTQPPSASGTPGQRVTISCSGSSSNIGNNYVSWYQQLPGTAPKLLIYENYNRPAGVPDRFSGSKSGTSASLAISGLRSEDEADYYCSSWDDSLNYWVFGGGTKLTVL | 0.76 nM
